Measurements published in the supplement of paper PMC10567573.

B1: DLC1 (parent)
chain: AIQGISEKEKAEIEAKEACDWLRA
B2: FUT8 (parent)
chain: YAHQPRTADEIPMEPGDIIGVAGN

Variants of: B1
Assay: protein stability index of a GFP-peptide fusion (GPS, HEK-293T) (PSI 1-6); higher = more stable
Conditions: c terminus: a fixed tail appended
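Note: lentivirally expressed fusions sorted by FACS into six bins by GFP to DsRed ratio, PSI derived from sequencing read proportions per bin multiplied by bin number.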

Row | Variant | protein stability index
1 | I13W | 4.26
2 | I13N | 4.66
3 | I13V | 4.64
4 | I13M | 4.78
5 | I13E | 5.08
6 | I13P | 5.13
7 | A11L | 4.23
8 | A11G | 4.56
9 | A11F | 3.64
10 | A11Y | 4.16
11 | A11M | 3.99
12 | A11T | 4.67
13 | A11D | 5.18
14 | Q3M | 4.18
15 | Q3E | 5.07
16 | Q3G | 4.33
17 | Q3A | 4.83
18 | K8R | 4.43
19 | K8T | 5.01
20 | K8C | 4
21 | K8V | 4.2
22 | K8L | 3.85
23 | K8M | 4.49
24 | K8E | 5.05
25 | K8A | 3.75
26 | A15D | 4.4

Row | Variant | protein stability index
27 | A15T | 3.76
28 | A15Y | 4.33
29 | A15H | 4.33
30 | A15I | 3.91
31 | A15P | 4.51
32 | D20F | 3.75
33 | D20V | 3.81
34 | D20K | 4.05
35 | D20S | 4.28
36 | D20E | 4.27
37 | D20M | 3.63
38 | E9F | 2.69
39 | E9V | 3.88
40 | E9P | 4.08
41 | E9N | 4.5
42 | E9K | 3.97
43 | E9G | 4.23
44 | K10H | 4.38
45 | K10S | 4.61
46 | K10F | 3.71
47 | K10N | 4.71
48 | K10W | 3.73
49 | K10M | 4.67
50 | K10Y | 4.11
51 | E12I | 4.02
52 | E12L | 3.72

Row | Variant | protein stability index
53 | E12H | 3.46
54 | E12W | 3.26
55 | E12R | 3.86
56 | E12P | 4.63
57 | E12Q | 4.18
58 | E12M | 3.98
59 | E12S | 4.02
60 | E12K | 3.81
61 | R23D | 5.42
62 | R23W | 4.91
63 | R23L | 3.87
64 | R23N | 5.1
65 | R23K | 4.62
66 | R23H | 4.75
67 | R23E | 5.36
68 | C19T | 5.12
69 | C19E | 5.65
70 | C19V | 4.77
71 | C19K | 4.63
72 | E14W | 2.86
73 | E14F | 3.78
74 | E14H | 3.74
75 | E14A | 4.1
76 | E14N | 3.54
77 | E14P | 4.12
78 | E14G | 3.73

Row | Variant | protein stability index
79 | W21D | 5.77
80 | W21Y | 4.68
81 | W21M | 5.6
82 | W21S | 5.05
83 | W21E | 5.01
84 | W21R | 5.4
85 | W21H | 5.29
86 | W21F | 4.66
87 | W21G | 5.35
88 | L22A | 5.03
89 | L22F | 4.61
90 | L22K | 5.38
91 | L22G | 4.98
92 | L22S | 5.09
93 | E7T | 4.14
94 | E7K | 4.3
95 | E7P | 3.71
96 | E7Y | 3.63
97 | I5C | 4.66
98 | I5H | 4.94
99 | I5T | 4.87
100 | I5L | 4.36
101 | I5D | 5.19
102 | I5G | 4.9
103 | I5N | 4.79
104 | I5V | 4.54

Row | Variant | protein stability index
105 | I5M | 5.16
106 | I5R | 4.57
107 | I5P | 4.46
108 | K16W | 4.09
109 | K16I | 4.16
110 | K16T | 4.87
111 | K16C | 4.14
112 | K16M | 4.24
113 | S6M | 4.04
114 | S6V | 4.14
115 | S6R | 4.46
116 | I2Y | 4.24
117 | I2L | 4.91
118 | I2E | 5.26
119 | I2V | 4.19
120 | I2K | 4.56
121 | I2W | 4.37
122 | I2M | 4.94
123 | I2P | 4.96
124 | A24S | 4.65
125 | A24N | 4.75
126 | A24V | 4.58
127 | A24T | 4.46
128 | A24H | 4.66
129 | E17D | 4.18
130 | E17S | 4.17

Row | Variant | protein stability index
131 | E17C | 3.92
132 | E17Y | 3.79
133 | E17Q | 3.73
134 | E17G | 4.18
135 | G4S | 4.45
136 | G4N | 3.67
137 | G4M | 3.92
138 | A1L | 4.21
139 | A1H | 4.21
140 | A1S | 4.67
141 | A1R | 4.55
142 | A1N | 5.11
143 | A1Y | 3.71
144 | A1K | 4.32
145 | A1F | 3.18
146 | A18E | 5.02
147 | A18C | 4.43
148 | A18M | 4.57
149 | A18Q | 4.28
150 | A18W | 4.27
151 | A18V | 4.26

Variants of: B2
Assay: as above
Conditions: c terminus: a fixed tail appended

Row | Variant | protein stability index
152 | D17N | 3.48
153 | D17F | 2.03
154 | D17Y | 2.68
155 | D17E | 4.24
156 | D17C | 2.79
157 | D17I | 2.57
158 | D17V | 2.87
159 | D17A | 3.23
160 | D17P | 3.14
161 | D17M | 3.06
162 | D17K | 3.25
163 | D17S | 3.78
164 | D17W | 1.41
165 | D17L | 2.3
166 | D17Q | 4.14
167 | D17T | 3.38
168 | D17H | 3.29
169 | D17G | 3.38
170 | D17R | 3.45
171 | A22I | 3.12
172 | A22K | 4.4
173 | A22L | 3.63
174 | A22V | 3.26

Row | Variant | protein stability index
175 | A22F | 2.85
176 | A22R | 4
177 | A22P | 4.06
178 | A22C | 3.14
179 | A22E | 3.92
180 | A22W | 2.41
181 | A22Q | 4.31
182 | A22G | 4.01
183 | A22Y | 3.27
184 | A22T | 3.87
185 | A22D | 4.19
186 | A22M | 3.96
187 | A22S | 3.92
188 | A22H | 3.97
189 | A22N | 4.38
190 | N24F | 2.46
191 | N24C | 3.57
192 | N24M | 3.21
193 | N24I | 2.93
194 | N24E | 4.59
195 | N24H | 3.39
196 | N24L | 2.77
197 | N24K | 3.62

Row | Variant | protein stability index
198 | N24Y | 3.21
199 | N24S | 4.17
200 | N24P | 3.18
201 | N24A | 3.95
202 | N24T | 4.13
203 | N24G | 3.43
204 | N24V | 3.61
205 | N24D | 4.71
206 | N24W | 2.66
207 | N24Q | 4.03
208 | N24R | 3.5
209 | P15M | 3.68
210 | P15T | 4.25
211 | P15S | 3.92
212 | P15N | 4.08
213 | P15I | 3.5
214 | P15W | 2.2
215 | P15Q | 4.25
216 | P15R | 4.23
217 | P15Y | 3.31
218 | P15V | 3.58
219 | P15K | 4.16
220 | P15L | 3.2

Row | Variant | protein stability index
221 | G20K | 4.34
222 | G20L | 2.96
223 | G20W | 2.08
224 | G20V | 3.5
225 | G20R | 3.56
226 | G20T | 4.37
227 | G20A | 4.26
228 | G20I | 3.26
229 | G20Q | 4.06
230 | G20Y | 3.37
231 | G20F | 3.55
232 | G20C | 3.73
233 | G20D | 4.59
234 | G20S | 3.86
235 | G20H | 4.17
236 | G20E | 4.48
237 | G20P | 4.47
238 | G20M | 4.11
239 | G20N | 4.29
240 | I18N | 4.03
241 | I18C | 3.01
242 | I18G | 3.84
243 | I18T | 4.2

Row | Variant | protein stability index
244 | I18M | 4.21
245 | I18E | 4.19
246 | I18S | 3.79
247 | I18V | 4.47
248 | I18H | 3.71
249 | I18Q | 4.07
250 | I18R | 4.45
251 | I18P | 4.7
252 | I18A | 3.83
253 | I18L | 4.05
254 | I18D | 4.95
255 | I18F | 3.55
256 | I18Y | 3.63
257 | I18W | 3.11
258 | I18K | 4.56
259 | G23I | 2.87
260 | G23Y | 3.13
261 | G23C | 3.12
262 | G23N | 3.63
263 | G23A | 3.96
264 | G23F | 2.99
265 | G23L | 3.27
266 | G23K | 4.19

Row | Variant | protein stability index
267 | G23P | 3.73
268 | G23Q | 4.11
269 | G23R | 3.31
270 | G23T | 3.87
271 | G23D | 4.24
272 | G23V | 3.58
273 | G23E | 4.83
274 | G23S | 3.77
275 | G23M | 3.7
276 | G23H | 3.99
277 | G23W | 2.67
278 | G16S | 3.87
279 | G16P | 4.1
280 | G16A | 4.3
281 | G16D | 4.61
282 | G16R | 3.66
283 | G16F | 2.93
284 | G16E | 4.26
285 | G16V | 3.92
286 | G16N | 4.16
287 | G16W | 2.12
288 | G16L | 3.73
289 | G16Y | 3.05

Row | Variant | protein stability index
290 | G16K | 3.75
291 | G16Q | 4.17
292 | G16M | 3.54
293 | G16H | 4.08
294 | G16C | 3.5
295 | G16I | 3.44
296 | G16T | 3.86
297 | I19W | 1.93
298 | I19T | 4.16
299 | I19P | 4.61
300 | I19C | 4.22
301 | I19N | 4.72
302 | I19D | 5.07
303 | I19A | 4.67
304 | I19F | 3.78
305 | I19Y | 4.06
306 | I19G | 4.34
307 | I19M | 4.54
308 | I19R | 4.4
309 | I19Q | 4.25
310 | I19L | 3.65
311 | I19H | 4.02
312 | I19V | 4.17

Row | Variant | protein stability index
313 | I19K | 4.42
314 | I19S | 4.55
315 | I19E | 5.21
316 | V21T | 4.69
317 | V21Y | 3.82
318 | V21A | 4.33
319 | V21G | 4.29
320 | V21Q | 4.22
321 | V21K | 3.99
322 | V21S | 4.05
323 | V21C | 4
324 | V21E | 4.62
325 | V21N | 4.28
326 | V21F | 3.8
327 | V21P | 4.13
328 | V21W | 3.03
329 | V21D | 4.62
330 | V21R | 3.47
331 | V21L | 4.03
332 | V21I | 3.93
333 | V21H | 4.15
334 | V21M | 3.68
